Like-named read-outs stand apart in the source and are kept apart here.
What was measured:
rhTSLP-hFc (human) [1] = experiment: cell-based or functional assay
rhTSLP-hFc (human) [2] = experiment: cell-based or functional assay; remark: listed apart in the source

Chain of rhTSLP-hFc (human) (chain, as listed by the source limits assumed): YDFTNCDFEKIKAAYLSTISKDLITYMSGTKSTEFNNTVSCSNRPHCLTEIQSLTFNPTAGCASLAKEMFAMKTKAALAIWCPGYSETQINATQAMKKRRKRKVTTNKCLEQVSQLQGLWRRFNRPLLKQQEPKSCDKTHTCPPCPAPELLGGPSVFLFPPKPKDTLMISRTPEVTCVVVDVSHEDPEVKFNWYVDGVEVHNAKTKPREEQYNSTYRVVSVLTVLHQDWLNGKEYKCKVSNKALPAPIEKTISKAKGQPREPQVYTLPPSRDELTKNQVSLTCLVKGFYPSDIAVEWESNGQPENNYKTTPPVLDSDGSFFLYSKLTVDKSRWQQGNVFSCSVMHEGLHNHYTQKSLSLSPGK

- IC50, 抑制TSLP刺激的293F转染细胞STAT5-荧光素酶活性 (rhTSLP-hFc (human) [1]): 7.04 µg/mL
- IC50, 抑制TSLP刺激的293F转染细胞STAT5-荧光素酶活性 (rhTSLP-hFc (human) [2]): 5.72 µg/mL
Substance: 人TSLP单抗Tezepelumab/MEDI9929(Amgen) (antibody)
